Data as given in patent publication US11833215B2, “CKIT antibody drug conjugates” (Novartis AG, priority 2014, dated 2023).

How the values were obtained:
GIST cell lines = settings: SR-1 as second therapeutic on Imatinib treated cells; cited from earlier work
Uke-1 cells = test: ADCC activity in vitro (Calcein release, NK3.3 effector cells); assay type: cell-based; settings: unconjugated IgG1, effector to target ratio 20 to 1
Experimental: The ability of the unconjugated anti-cKIT antibodies (NEG085, 20376) to mediate antibody dependent cellular cytotoxicity was determined versus Uke-1 cells (target cells; generously provided by Professor Walter Fiedler, University Hospital Eppendorf, Hamburg, Germany) in co-incubation with NK3.3 cells (killer cells or effector cells; kindly provided by Jacky Kornbluth from Saint Louis University). […] In order to calculate the antibody specific lysis of the target cells, a parallel incubation of target cells only without antibody or effector cells served as a baseline and negative control, whereas the positive control or maximal lysis or hundred percent specific lysis was determined by lysis of target cells only with a 1% Triton-X 100 solution. […] Following a co-incubation of target and effector cells, the microtiterplate was centrifuged and an aliquot of the supernatant fluid was transferred to another microtiterplate (96 well, flat-bottomed, black with clear bottom; (Corning Costar, catalog #3904, Tewksbury, MA) and the concentration of free Calcein in solution was determined with a fluorescence counter (Victor 3 ® multilabel counter, Perkin Elmer, Waltham, MA).

rat cKIT = test: SPR (Biacore) affinity measurement; assay type: binding; settings: 25° C., 1:1 model
Experimental: (§1) Affinity of the antibodies to cKIT species orthologues and also to cKIT was determined using SPR technology using a Biacore® 2000 instrument (GE Healthcare, Pittsburgh, PA) and with CM5 sensor chips.
(§2) Briefly, HBS-P (0.01 M HEPES, pH 7.4, 0.15 M NaCl, 0.005% Surfactant P20) supplemented with 2% Odyssey® blocking buffer (Li-Cor Biosciences, Lincoln, NE) was used as the running buffer for all the experiments. The immobilization level and analyte interactions were measured by response unit (RU). Pilot experiments were performed to test and confirm the feasibility of the immobilization of the anti-human Fc antibody (Catalog number BR100839, GE Healthcare, Pittsburgh, PA) and the capture of the test antibodies.
(§3) For kinetic measurements, the experiments were performed in which the antibodies were captured to the sensor chip surface via the immobilized anti-human Fc antibody and the ability of the cKIT proteins to bind in free solution was determined. Briefly, 25 μg/ml of anti-human Fc antibody at pH 5 was immobilized on a CM5 sensor chip through amine coupling at flow rate of 5 μl/minute on all two flow cells to reach 10,500 RUs. 0.1-1 μg/ml of test antibodies were then injected at 10 μl/min for 1 minute. Captured levels of the antibodies were generally kept below 200 RUs. Subsequently, 3.125 −50 nM of cKIT receptor extracellular domains (ECD) were diluted in a 2-fold series and injected at a flow rate of 40 μl/min for 3 min over both reference and test flow cells. Table of tested ECDs is listed below (Table 6). Dissociation of the binding was followed for 10 min. After each injection cycle, the chip surface was regenerated with 3 M MgCl2 at 10 μl/min for 30 seconds.

human cKIT = target: T1, human cKIT (Homo sapiens, UniProt P10721); test: SPR (Biacore) affinity measurement; assay type: binding; settings: 25° C., 1:1 model
T1 construct: Human cKIT tr. variant 2 , residues 26-520-TAG; made in house; host or cells: HEK293 derived cell line 293FS, transient transfection
Experimental: as §1, §2, §3

mouse cKIT = target: T2, mouse cKIT (Mus musculus, UniProt P05532); test: SPR (Biacore) affinity measurement; assay type: binding; settings: 25° C., 1:1 model
T2 construct: cKIT receptor extracellular domains (ECD) were diluted in a 2-fold series
T2 sequence (P05532 25-527 limits assumed): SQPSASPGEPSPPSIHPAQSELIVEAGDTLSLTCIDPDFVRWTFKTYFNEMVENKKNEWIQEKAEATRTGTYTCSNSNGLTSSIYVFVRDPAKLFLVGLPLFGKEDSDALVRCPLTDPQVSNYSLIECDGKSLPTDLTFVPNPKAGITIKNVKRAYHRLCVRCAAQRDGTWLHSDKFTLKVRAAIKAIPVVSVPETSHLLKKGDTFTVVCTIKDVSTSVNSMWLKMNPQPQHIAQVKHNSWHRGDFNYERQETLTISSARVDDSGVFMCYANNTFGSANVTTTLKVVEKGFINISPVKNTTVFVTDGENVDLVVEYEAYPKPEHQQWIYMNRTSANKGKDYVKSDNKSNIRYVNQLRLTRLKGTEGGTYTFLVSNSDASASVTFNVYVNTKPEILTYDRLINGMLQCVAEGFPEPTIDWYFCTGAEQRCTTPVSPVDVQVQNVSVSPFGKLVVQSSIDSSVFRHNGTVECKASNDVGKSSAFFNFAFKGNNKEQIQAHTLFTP
Experimental: as §1, §2, §3

SCF binding to cKIT = SCF binding to cKIT (Homo sapiens, UniProt P10721); test: competition assays using ELISA and FACS
Chain of SCF binding to cKIT (P10721 26-976): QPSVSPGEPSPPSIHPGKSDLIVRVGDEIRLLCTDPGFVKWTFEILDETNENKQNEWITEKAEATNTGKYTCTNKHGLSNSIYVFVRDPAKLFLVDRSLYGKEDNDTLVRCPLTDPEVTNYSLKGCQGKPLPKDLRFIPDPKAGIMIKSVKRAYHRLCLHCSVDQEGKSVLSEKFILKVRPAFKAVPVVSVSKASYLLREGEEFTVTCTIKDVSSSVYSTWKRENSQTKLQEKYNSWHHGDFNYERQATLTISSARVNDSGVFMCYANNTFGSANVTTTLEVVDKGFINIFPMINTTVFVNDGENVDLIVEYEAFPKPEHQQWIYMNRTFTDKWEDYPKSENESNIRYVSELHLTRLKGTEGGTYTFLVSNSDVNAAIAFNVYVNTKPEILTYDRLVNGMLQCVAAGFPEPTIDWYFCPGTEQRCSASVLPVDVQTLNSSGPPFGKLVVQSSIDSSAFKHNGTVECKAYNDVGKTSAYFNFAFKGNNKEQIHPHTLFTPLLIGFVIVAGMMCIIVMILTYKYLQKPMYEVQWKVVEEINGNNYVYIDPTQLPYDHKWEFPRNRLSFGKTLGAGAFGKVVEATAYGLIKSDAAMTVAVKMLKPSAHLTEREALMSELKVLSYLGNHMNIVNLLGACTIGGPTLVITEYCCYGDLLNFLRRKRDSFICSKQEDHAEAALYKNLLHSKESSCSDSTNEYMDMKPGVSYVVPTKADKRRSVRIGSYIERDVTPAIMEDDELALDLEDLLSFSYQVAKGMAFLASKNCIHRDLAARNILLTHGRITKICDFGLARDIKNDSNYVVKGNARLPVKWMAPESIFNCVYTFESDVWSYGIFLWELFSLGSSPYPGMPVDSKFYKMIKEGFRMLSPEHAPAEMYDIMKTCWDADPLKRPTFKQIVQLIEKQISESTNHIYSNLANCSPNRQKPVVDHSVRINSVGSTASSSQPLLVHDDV

T1 sequence (P10721 with tags, fused parts or gaps isoform P10721-2): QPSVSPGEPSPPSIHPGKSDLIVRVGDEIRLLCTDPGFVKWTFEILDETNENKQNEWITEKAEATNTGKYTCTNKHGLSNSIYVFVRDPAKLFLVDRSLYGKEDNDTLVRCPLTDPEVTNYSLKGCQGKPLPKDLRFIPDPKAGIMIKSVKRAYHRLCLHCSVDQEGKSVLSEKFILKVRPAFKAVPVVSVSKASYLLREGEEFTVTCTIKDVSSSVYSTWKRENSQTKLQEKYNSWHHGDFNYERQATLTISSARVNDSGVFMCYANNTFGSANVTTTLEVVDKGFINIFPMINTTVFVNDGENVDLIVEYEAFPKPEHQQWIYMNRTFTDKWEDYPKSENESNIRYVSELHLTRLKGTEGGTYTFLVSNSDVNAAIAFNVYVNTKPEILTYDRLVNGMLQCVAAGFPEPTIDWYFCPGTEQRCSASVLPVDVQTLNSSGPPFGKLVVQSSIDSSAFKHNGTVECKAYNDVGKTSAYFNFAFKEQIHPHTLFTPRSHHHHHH
Chain of rat cKIT (as listed by the source): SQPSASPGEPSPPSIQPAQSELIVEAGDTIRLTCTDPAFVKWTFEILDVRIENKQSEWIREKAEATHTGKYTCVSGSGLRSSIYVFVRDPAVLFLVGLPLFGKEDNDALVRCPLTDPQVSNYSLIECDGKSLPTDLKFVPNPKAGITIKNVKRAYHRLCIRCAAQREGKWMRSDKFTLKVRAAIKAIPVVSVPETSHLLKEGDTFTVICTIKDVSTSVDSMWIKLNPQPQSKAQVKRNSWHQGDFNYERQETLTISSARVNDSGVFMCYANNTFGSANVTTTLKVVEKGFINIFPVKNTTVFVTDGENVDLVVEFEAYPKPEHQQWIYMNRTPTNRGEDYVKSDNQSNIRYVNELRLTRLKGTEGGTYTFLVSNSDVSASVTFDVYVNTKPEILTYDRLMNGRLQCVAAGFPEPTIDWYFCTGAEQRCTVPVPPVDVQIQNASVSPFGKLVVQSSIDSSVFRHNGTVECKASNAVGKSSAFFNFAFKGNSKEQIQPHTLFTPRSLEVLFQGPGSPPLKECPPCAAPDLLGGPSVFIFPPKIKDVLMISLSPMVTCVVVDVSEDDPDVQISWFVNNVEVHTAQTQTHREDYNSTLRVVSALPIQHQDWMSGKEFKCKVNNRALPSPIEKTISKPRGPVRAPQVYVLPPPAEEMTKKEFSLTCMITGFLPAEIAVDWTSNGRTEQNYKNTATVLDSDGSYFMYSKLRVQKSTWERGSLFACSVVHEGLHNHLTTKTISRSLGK

Cc1ccc(NC(=O)c2ccc(CN3CCN(C)CC3)cc2)cc1Nc1nccc(-c2cccnc2)n1 [imatinib]
proliferation of GIST cells (GIST cell lines): significantly reduce proliferation

MabCampath® [reference compound]
ADCC killing of target cells (Uke-1 cells): mediated ADCC killing

B1: NEG027: anti-cKIT antibody of Table 3, VH SEQ ID NO 64, VL SEQ ID NO 73 (antibody, listed as Homo sapiens, V domains shown)
VH: EVQLVESGGGLVQPGGSLRLSCAASGFTFSDYYMAWVRQAPGKGLEWVASINQNTGSTYYLDSVRGRFTISRDNAKNSLYLQMNSLRAEDTAVYYCARGDYYGTTYWYFDVWGQGTTVTVSS
VL: EIVMTQSPATLSLSPGERATLSCRASQDISNYLNWYQQKPGQAPRLLIYYTSRLQSGIPARFSGSGSGTDYTLTISSLEPEDFAVYYCQQGKKLWSFGGGTKVEIK
Affinity to rat cKIT (nM) (rat cKIT): Not reactive | Affinity human cKIT (nM) (human cKIT): nanomolar level | Affinity mouse cKIT (nM) (mouse cKIT): Not reactive

B2: NEG086: anti-cKIT antibody of Table 3, VH SEQ ID NO 100, VL SEQ ID NO 109 (antibody, listed as Homo sapiens, V domains shown)
VH: EVQLVESGGGLVQPGGSLRLSCAASGFTFSDYYMAWVRQAPGKGLEWVANINQIAGSTYYVDSVQGRFTISRDNAKNSLYLQMNSLRAEDTAVYYCARGDYYGTTYWYFDVWGQGTTVTVSS
VL: DIQMTQSPSSLSASVGDRVTITCRASQSISSYLNWYQQKPGKAPKLLIYYTSRLQSGVPSRFSGSGSGTDFTLTISSLQPEDFATYYCQQGRRLWSFGGGTKVEIK
Affinity to rat cKIT (nM) (rat cKIT): Not reactive | Affinity human cKIT (nM) (human cKIT): nanomolar level | Affinity mouse cKIT (nM) (mouse cKIT): Not reactive

B3: NEG026: anti-cKIT antibody of Table 3, VH SEQ ID NO 46, VL SEQ ID NO 55 (antibody, listed as Homo sapiens, V domains shown)
VH: EVQLVESGGGLVQPGGSLRLSCAASGFTFSDYYMAWVRQAPGKGLEWVANINQNTGSTYYVDSVQGRFTISRDNAKNSLYLQMNSLRAEDTAVYYCARGDYYGTTYWYFDVWGQGTTVTVSS
VL: EIVMTQSPATLSLSPGERATLSCRASQDISNYLNWYQQKPGQAPRLLIYYTSRLQSGIPARFSGSGSGTDYTLTISSLEPEDFAVYYCQQGKKLWSFGGGTKVEIK
Affinity to rat cKIT (nM) (rat cKIT): Not reactive | Affinity mouse cKIT (nM) (mouse cKIT): Not reactive

B4: NEG087: anti-cKIT antibody of Table 3, VH SEQ ID NO 118, VL SEQ ID NO 127 (antibody, listed as Homo sapiens, V domains shown)
VH: EVQLVESGGGLVQPGGSLRLSCAASGFTFSDYYMAWVRQAPGKGLEWVASINQNTGSTYYLDSVRGRFTISRDNAKNSLYLQMNSLRAEDTAVYYCARGDYYGTTYWYFDVWGQGTTVTVSS
VL: DIQMTQSPSSLSASVGDRVTITCRASQSISSYLNWYQQKPGKAPKLLIYYTSRLQSGVPSRFSGSGSGTDFTLTISSLQPEDFATYYCQQGRRLWSFGGGTKVEIK
Affinity to rat cKIT (nM) (rat cKIT): Not reactive | Affinity human cKIT (nM) (human cKIT): nanomolar level | Affinity mouse cKIT (nM) (mouse cKIT): Not reactive

B5: 9P3: hybridoma derived anti-cKIT antibody, VH SEQ ID NO:9, VL SEQ ID NO:18 (antibody, listed as Homo sapiens, V domains shown)
VH: EVRLVESEGGLVQPRSSMKLSCTASGFTFSDYYMAWVRQVPEKGLEWVANINYDGSSTYYLDSLKSRFIISRDNAKNILYLQMSSLKSEDTATYYCARGDYYGTTYWYFDVWGTGTTVTVSS
VL: DIQMTQTTSSLSASLGDRVTISCRASQDISNYLNWYQQKPDGTVKLLIYYTSRLQSGVPSRFSGSGSGTDYSLTISNLEQEDIATYFCQQGKKLWSFGGGTKLEIKR
blocking of SCF binding to cKIT (SCF binding to cKIT): partial blocking | Affinity to rat cKIT (nM) (rat cKIT): Not reactive | Affinity human cKIT (nM) (human cKIT): nanomolar level | Affinity mouse cKIT (nM) (mouse cKIT): Not reactive
